# Results: publication PMC6013450, “A convenient protocol for generating giant unilamellar vesicles containing SNARE proteins using electroformation” (Scientific Reports, 2018)
# B1: synaptobrevin-2 fragment (49–96) (domain or fragment, Rattus norvegicus, UniProt P63045 49-96, looked up)
# chain: NVDKVLERDQKLSELDDRADALQAGASQFETSAAKLKRKYWWKNLKMM
# notes: synaptobrevin-2, Rattus norvegicus, residues 49-96; also called synaptobrevin fragment 49–96; source: E. coli BL21 (DE3), purified (Ni-NTA, ion exchange MonoS)
# Target: T1, syntaxin-1A (183–288) (Rattus norvegicus, UniProt P32851 183-288)
# T1 construct: syntaxin-1A, Rattus norvegicus, residues 183-288, contains the transmembrane region; source: E. coli BL21 (DE3), purified (Ni-NTA, ion exchange MonoQ, buffer with 1% CHAPS)
# T1 sequence (P32851 183-288): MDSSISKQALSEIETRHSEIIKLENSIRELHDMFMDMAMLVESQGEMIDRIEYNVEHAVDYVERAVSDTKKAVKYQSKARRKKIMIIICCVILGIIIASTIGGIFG
# Assay: ion exchange chromatography of the assembled complex; monomers mixed overnight at 4 °C; complex purified on a MonoQ column in a buffer containing CHAPS
# Conditions: both partners purified
binder,measurement,value
B1,binding result,binds
